Assay: soluble on expression in E. coli; label from the status in PepcDB or PDB records

Row | Sequence | soluble on expression in E. coli
1 | STPSIVIASAARTAVGSFNGAFANTPAHELGATVISAVLERAGVAAGEVNEVILGQVLPAGEGQNPARQAAMKAGVPQEATAWGMNQLCGSGLRAVALGMQQIATGDASIIVAGGMESMSMAPHCAHLRGGVKMGDFKMIDTMIKDGLTDAFYGYHMGTTAENVAKQWQLSRDEQDAFAVASQNKAEAAQKDGRFKDEIVPFIVKGRKGDITVDADEYIRHGATLDSMAKLRPAFDKEGTVTAGNASGLNDGAAAALLMSEAEASRRGIQPLGRIVSWATVGVDPKVMGTGPIPASRKALERAGWKIGDLDLVEAAEAFAAQACAVNKDLGWDPSIVNVNGGAIAIGHPIGASGARILNTLLFEMKRRGARKGLATLCIGGGMGVAMCIESL | soluble
2 | STVELCGQWDTRTVAGGRYTVSNNVWGAETAQCIEVGLETGNFTITRAEHDNGNNVAAYPNIQFAIPQPRRVQELSDVRTSWTLTPITTGRWNAAYDIFFAANPNHVTYSGDAELMIWLNKNGDVMPIGSRVATVELAGATWEVWYADNGAMNVISYVRTTPTTSVTELDLKAFIDDAVARGYIRPEWYLLSVQTGFELFTGGAGLRSADFSVTVQ | soluble
3 | STVKRKPVFVKVEQLKPGTTGHTLTVKVIEANIVVPVTRKTRPASSLSRPSQPSRIVECLIGDETGCILFTARNDQVDLMKPGATVILRNSRIDMFKGTMRLGVDKWGRIEATGAASFTVKEDNNLSLVEYE | soluble
4 | STVLDSLQHTGRGDKVYWFCYGMKCYYFVMDRKTWSGCKQTCQSSSLSLLKIDDEDELKFLQLVVPSDSCWVGLSYDNKKKDWAWIDNRPSKLALNTRKYNIRDGGCMLLSKTRLDNGNCDQVFICICGKRLDKFPH | soluble
5 | SVDMQSLDEEDFSVSKSSDADAEFDIVIGNIEDIIMEDEFQHLQQSFMEKYYLEFDDSEENKLSYTPIFNEYIEILEKHLEQQLVERIPGFNMDAFTHSLKQHKDEVSGDILDMLLTFTDFMAFKEMFTDYRAEKEGRGLDLSTGLVVKSLNSSSASPLTPSMASQSI | not soluble
6 | SVLEGNPEVGSPRTSDLQHRGNKGSCVLSSPGEDAQPGEEPIKYGELIVLGCCEEGGEETEAQRGEVTGPRAHSCYNGCLASGDKGRRRSRLALSRRSHANGVKPDVMHHISTPLVSKALSNRGQHSISYTLSRSHSVIVEYTHDSDTDMFQIGRSTENMIDFVVTDTSPGGGAAEGPSAQSTISRYACRILCDRRPPYTARIYAAGFDASSNIFLGERAAKWRTPDGLMDGLTTNGVLVMHPAGGFSEDSAPGVWREISVCGNVYTLRDSRSAQQRGKLVGGPLHSPPLSLPGPHKLPIPLPKPGDDLQSFCPREPQQAPYQGIPGPGGS | soluble
7 | SVRCYVEIVEKLPERRPDPATIEGCAQLKPNNYLLAWHTPFNEKGSGFGAATKAMCIGLRYWKPERLETLIEVSVECGRMTHNHPTGFLGSLCTALFVSFAAQGKPLVQWGRDMLRAVPLAEEYCRKTIRHTAEYQEHWFYFEAKWQFYLEERKISKDSENKAIFPDNYDAEEREKTYRKWSSEGRGGRRGHDAPMIAYDALLAAGNSWTELCHRAMFHGGESAATGTIAGCLFGLLYGLDLVPKGLYQDLEDKEKLEDLGAALYRLSTEEK | soluble
8 | SVRDDLQVVLDTSPPDDTGFSTLERTMLRNILGLHDRRIADVMVHRADIVAIKQDIQLGELLSLFQDAAHSRLVVYNETLDDPVGIVHIRDLVAFMTAKAKVPPATVAKRKKALPAGLDLRAIDLKMPLTETGIIRKLLYVPPSMRAIDLLAQMQAARIHLALVVDEYGGTDGLVSIEDIVEQIVGEID | soluble
9 | SVSPLKTRCCSPSSQQQASEAREIEQPSTVWELDFYSRPVYGKDNKRIWELIVVDESFLLCHVESVPNDMINSAELRKRVERLLEQVTVKPKVVKFSRMPMFNMISLALKDLGFEVKPSRRTYRLYHVLRDREANIYSKMPGYRSENTLSTSYLYSTERLPDALRGEKFAFCTADYSFLYELQSSDTIPYCDIFNTGDSILLEKELPGIIVYSERADSLASWTAGAEVSFIKFREEELELVLECGINSHYRLAKIAEDHRLVEEAKTFEQMKWHMKGFHFYAIQSLKETSGTSHIKGLWLLNDFMEQ | soluble
10 | SVTGIGSGFSELDEYTAGFQPSDMIIIAARPSAGKTAFALALARNAAVNFNTPVLFFSLEMAEIQLALRLMCAEAYVESQLVRRGQISPEMMNKIINSMDALADAKLFIDDTPGISIMELTAKTRRMKQEHGIGMVVVDYLQLVTPVRDGRSNREQEIAQISRSLKALAKELNIPVIALAQLNRSVEQRSGDRRPQLSDL | not soluble
